Reference: paper PMC12568027

Target: HIV-2 GL-AN CA P14C/E45C/W184A/M185A (HIV-2 GL-AN)

HIV-2 GL-AN CA P14C/E45C/W184A/M185A (natural protein)
stoichiometry N: 6
